B1: gp100 peptide G10-4 (LLDGTATLRL) (peptide)
peptide: LLDGTATLRL
B2: gp100 peptide G10-5 (VLYRYGSFSV) (peptide)
peptide: VLYRYGSFSV
B3: G9-154-1A (peptide)
peptide: ATWGQYWQV
B4: G9-154-1A2L (peptide)
peptide: ALWGQYWQV
B5: G9-154-1F (peptide)
peptide: FTWGQYWQV
B6: G9-154-1Y (peptide)
peptide: YTWGQYWQV
B7: G9-154-2M (peptide)
peptide: KMWGQYWQV
B8: G9-154-1W2L (peptide)
peptide: WLWGQYWQV
B9: G9-154-1W (peptide)
peptide: WTWGQYWQV
B10: G9-154-1L2L (peptide)
peptide: LLWGQYWQV
B11: G9-154-1L (peptide)
peptide: LTWGQYWQV
B12: G9-154-3F (peptide)
peptide: KTFGQYWQV
B13: G9-154-1F2L (peptide)
peptide: FLWGQYWQV
B14: G9-154-1Y2L (peptide)
peptide: YLWGQYWQV
B15: G9-154-2L (peptide)
peptide: KLWGQYWQV
B16: G9-154-3Y (peptide)
peptide: KTYGQYWQV
B17: G9-154-2I (peptide)
peptide: KIWGQYWQV

Target: T1, HLA-A2.1 (heavy chain with human beta 2-microglobulin) (human)

Binder | IC50 [nM] | Ratio to Standard
B1 | 483 | 0.01
B2 | 13 | 0.38

Target: T1, HLA-A2.1 (heavy chain with human beta …)
Remark: another data set of the same source

Binder | IC50 [nM]
B3 | 5.2
B4 | 2.3
B5 | 1.6
B6 | 2.5
B7 | 6.5
B8 | 2.8
B9 | 60
B10 | 1.6
B11 | 3.4
B12 | 21
B13 | 2.6
B14 | 1.7
B15 | 2
B16 | 30
B17 | 3

From patent US20040214995A1 (published 2004)
